Here are results for twelve molecules from US20250270343A1 (Alector, published 2025).

T1: soluble mouse GPNMB (recombinant extracellular domain) (mouse, UniProt Q99P91 23-502)
T1 construct: also called moGPNMB; not shown: C-terminal polyhistidine or Avi-His tag
T1 sequence: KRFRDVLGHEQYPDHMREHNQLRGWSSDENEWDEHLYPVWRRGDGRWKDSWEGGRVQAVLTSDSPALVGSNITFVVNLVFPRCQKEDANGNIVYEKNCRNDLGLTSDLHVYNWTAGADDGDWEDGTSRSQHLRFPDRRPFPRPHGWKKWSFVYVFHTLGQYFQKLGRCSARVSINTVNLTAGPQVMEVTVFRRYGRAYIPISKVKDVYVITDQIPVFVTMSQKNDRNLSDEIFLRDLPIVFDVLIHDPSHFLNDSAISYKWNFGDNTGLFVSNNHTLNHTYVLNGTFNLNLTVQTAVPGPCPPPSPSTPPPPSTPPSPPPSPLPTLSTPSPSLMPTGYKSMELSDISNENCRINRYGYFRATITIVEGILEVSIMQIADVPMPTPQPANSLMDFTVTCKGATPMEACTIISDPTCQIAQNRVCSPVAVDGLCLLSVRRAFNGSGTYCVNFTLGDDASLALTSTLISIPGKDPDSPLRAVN

T2: mouse GPNMB endogenously expressed on B16F10 cells (mouse, UniProt Q99P91 23-574)
T2 construct: whole, on cells; also called moGPNMB
T2 sequence (looked up): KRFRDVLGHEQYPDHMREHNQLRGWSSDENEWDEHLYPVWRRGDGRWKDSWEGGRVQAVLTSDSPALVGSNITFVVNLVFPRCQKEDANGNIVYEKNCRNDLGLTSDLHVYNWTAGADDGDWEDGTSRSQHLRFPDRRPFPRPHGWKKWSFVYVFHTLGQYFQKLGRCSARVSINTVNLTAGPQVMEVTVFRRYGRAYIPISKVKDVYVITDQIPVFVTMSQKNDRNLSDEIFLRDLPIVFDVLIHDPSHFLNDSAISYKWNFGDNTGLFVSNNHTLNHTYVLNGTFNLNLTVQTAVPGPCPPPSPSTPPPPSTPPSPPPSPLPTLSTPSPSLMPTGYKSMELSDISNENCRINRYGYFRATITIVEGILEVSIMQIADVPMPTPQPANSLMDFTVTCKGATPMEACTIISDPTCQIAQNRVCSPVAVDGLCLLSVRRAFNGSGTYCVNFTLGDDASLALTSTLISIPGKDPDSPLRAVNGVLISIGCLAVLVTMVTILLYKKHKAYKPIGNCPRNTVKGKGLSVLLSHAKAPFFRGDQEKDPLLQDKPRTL

B1: anti-GPNMB antibody GPN-35 (antibody, human IgG1, V domains shown)
VH: EVQLVESGGGSVRPGRSLKLSCAAAGFTFSDYYMTWVRQAPTKGLEWVASINHDGGGTYYRDSVKGRFTISRDNARSSLYLQMDSLRSEDTGTYYCTTRAGWHWGQGVMVTVSS
VL: DIQMTQSPASLSASLGETVSIECLASEDIYNYLTWYQQKPGKSPQVLIYSASGLQDGVPSRFSGSGSGRQYSLKINGLESEDAATYFCLQDSEYPLTFGSGTKLEIK
notes: chimeric
B2: anti-GPNMB antibody GPN-52 (antibody, human IgG1, V domains shown)
VH: DVQLQESGPGLVKPSQTVFLTCTVTGISITTGNYRWSWIRQFPGNKLEWIGYIYYSGTITYNPSLTSRITITRDTPKNEFFLEMNSLTAEDTATYYCARDLTHWYFDVWGTGTTVTVSS
VL: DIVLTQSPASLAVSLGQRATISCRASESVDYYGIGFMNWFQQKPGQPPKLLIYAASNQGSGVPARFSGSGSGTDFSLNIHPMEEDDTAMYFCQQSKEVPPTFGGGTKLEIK
notes: chimeric
B3: anti-GPNMB antibody GPN-61 (antibody, human IgG1, V domains shown)
VH: DVQLQESGPGLVKPSQTVFLTCTVTGISITTGNYRWSWIRQFPGNKLEWIGYIYYSGTITYNPSLTSRTTITRDTPKNQFFLEMSSLTAEDTATYFCARDLRHWYFDVWGTGTTVTVSS
VL: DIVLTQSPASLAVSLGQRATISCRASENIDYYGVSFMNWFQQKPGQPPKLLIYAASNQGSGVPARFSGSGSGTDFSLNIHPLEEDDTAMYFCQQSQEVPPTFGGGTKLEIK
notes: chimeric
B4: anti-GPNMB antibody GPN-83 (antibody, V domains shown)
VH: QVQLQESGPGLVKPSETLSLTCTVSGISITTGNYRWSWIRQPPGKGLEWIGYIDYSGTITYNPSLKSRVTITRDTSKNQFSLELSSVTAADTAVYYCARDLTHWYFDVWGQGTLVTVSS
VL: DIVMTQSPDSLAVSLGERATINCKSSRSVDYYGIGFVNWYQQKPGQPPKLLIYATSIQGSGVPDRFSGSGSGTDFTLTISSLQAEDVAVYYCQQQKEVPPTFGGGTKVEIK
B5: anti-GPNMB antibody GPN-86 (antibody, V domains shown)
VH: QVQLQESGPGLVKPSETLSLTCTVSGISITTGNYRWSWIRQPPGKGLEWIGYIDYSGTITYNPSLKSRVTITRDTSKNQFSLELSSVTAADTAVYYCARDLTHWYFDVWGQGTLVTVSS
VL: DIVMTQSPDSLAVSLGERATINCKSSRSVDYYGIGFLNWYQQKPGQPPKLLIYATSKQGSGVPDRFSGSGSGTDFTLTISSLQAEDVAVYYCQQQKEVPPTFGGGTKVEIK
B6: anti-GPNMB antibody GPN-85 (antibody, V domains shown)
VH: QVQLQESGPGLVKPSETLSLTCTVSGISITTGNYRWSWIRQPPGKGLEWIGYIDYSGTITYNPSLKQRVTITRDTSKNQFSLELSSVTAADTAVYYCARDLTHWYFDVWGQGTLVTVSS
VL: DIVMTQSPDSLAVSLGERATINCKSSRSVDYFGIGFLNWYQQKPGQPPKLLIYATSHQGSGVPDRFSGSGSGTDFTLTISSLQAEDVAVYYCQQQKEVPPTFGGGTKVEIK
B7: anti-GPNMB antibody GPN-91 (antibody, V domains shown)
VH: QVQLQESGPGLVKPSETLSLTCTVSGISITTGNYRWSWIRQPPGKGLEWIGYIDYSGTITYNPSLKSRVTITRDTSKNQFSLELSSVTAADTAVYYCARDLTHWYFDVWGQGTLVTVSS
VL: DIVMTQSPDSLAVSLGERATINCKSSRSVDYYGIGFLNWYQQKPGQPPKLLIYATSHQGSGVPDRFSGSGSGTDFTLTISSLQAEDVAVYYCQQQKERPPTFGGGTKVEIK
B8: anti-GPNMB antibody GPN-84 (antibody, V domains shown)
VH: QVQLQESGPGLVKPSETLSLTCTVSGISITTGNYRWSWIRQPPGKGLEWIGYIDYSGTITYNPSLKSRVTITRDTSKNQFSLELSSVTAADTAVYYCARDLTHWYYDVWGQGTLVTVSS
VL: DIVMTQSPDSLAVSLGERATINCKSSRSVDYYGIGFVNWYQQKPGQPPKLLIYATSIQGSGVPDRFSGSGSGTDFTLTISSLQAEDVAVYYCQQQKEVPPTFGGGTKVEIK
B9: anti-GPNMB antibody GPN-89 (antibody, V domains shown)
VH: QVQLQESGPGLVKPSETLSLTCTVSGISITTGNYRWSWIRQPPGKGLEWIGYIDYSGTITYNPSLKSRVTITRDTSKNQFSLELSSVTAADTAVYYCARDLTHWYYDVWGQGTLVTVSS
VL: DIVMTQSPDSLAVSLGERATINCKSSRSVDYYGIGFLNWYQQKPGQPPKLLIYATSHQGSGVPDRFSGSGSGTDFTLTISSLQAEDVAVYYCQQQKEVPPTFGGGTKVEIK
B10: anti-GPNMB antibody GPN-87 (antibody, V domains shown)
VH: QVQLQESGPGLVKPSETLSLTCTVSGISITTGNYRWSWIRQPPGKGLEWIGYIDYSGTITYNPSLKSRVTITRDTSKNQFSLELSSVTAADTAVYYCARDLTHWYYDVWGQGTLVTVSS
VL: DIVMTQSPDSLAVSLGERATINCKSSRSVDYYGIGFLNWYQQKPGQPPKLLIYATSKQGSGVPDRFSGSGSGTDFTLTISSLQAEDVAVYYCQQQKEVPPTFGGGTKVEIK
B11: anti-GPNMB antibody GPN-88 (antibody, V domains shown)
VH: QVQLQESGPGLVKPSETLSLTCTVSGISITTGNYRWSWIRQPPGKGLEWIGYIDYSGTITYNPSLKSRVTITRDTSKNQFSLELSSVTAADTAVYYCARDLTHWYFDVWGQGTLVTVSS
VL: DIVMTQSPDSLAVSLGERATINCKSSRSVDYYGIGFLNWYQQKPGQPPKLLIYATSHQGSGVPDRFSGSGSGTDFTLTISSLQAEDVAVYYCQQQKHVPPTFGGGTKVEIK
B12: anti-GPNMB antibody GPN-90 (antibody, V domains shown)
VH: QVQLQESGPGLVKPSETLSLTCTVSGISITTGNYRWSWIRQPPGKGLEWIGYIDYSGTITYNPSLKQRVTITRDTSKNQFSLELSSVTAADTAVYYCARDLTHWYFDVWGQGTLVTVSS
VL: DIVMTQSPDSLAVSLGERATINCKSSRSVDYYGIGFLNWYQQKPGQPPKLLIYATSHQGSGVPDRFSGSGSGTDFTLTISSLQAEDVAVYYCQQQKEVPPTFGGGTKVEIK

For the first assay, the target named is T1, soluble mouse GPNMB (recombinant …). Description: SPR Carterra, Ab immobilized. In a few lines: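 Analyte series of GPNMB extracellular domain (2.5, 7.4, 22, 67, 200, 600 nM) flowed in ascending order, no regeneration, over IgG1 antibodies EDC/NHS-immobilized on an HC200M array. HBS-EP+ plus 0.5 mg/ml BSA as running buffer, two blanks per series. Affinity estimated via high-throughput kinetic fitting.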
What is called Kd is a measure of binding affinity in units of concentration. The term koff denotes the first-order rate constant of dissociation. In general, kon refers to the second-order rate constant of association. Regarding B1, the equilibrium dissociation constant (Kd) was determined as 2.1 nM, the off-rate constant (koff) stood at 0.00012 s⁻¹ and the association rate constant (kon) was 56000 M⁻¹ s⁻¹.
On to B2, for which the Kd came to 4.6 nM, the dissociation rate constant (koff) amounted to 0.00082 s⁻¹ and the kon came out at 190000 M⁻¹ s⁻¹.
The corresponding values for B3 are 2.1 nM, 0.00029 s⁻¹ and 130000 M⁻¹ s⁻¹.

The target of the next assay is T2, mouse GPNMB endogenously expressed on …. The experiment in a line: FACS titration, B16F10 cells. On the procedure: Affinity matured anti-GPNMB antibodies of the present disclosure were examined to determine their ability to bind human and mouse GPNMB expressed on FS293-huGPNMB+ or B16F10 cells, respectively. Cell-based affinity measurements were performed to ascertain the apparent affinities of anti-GPNMB antibodies to cell-surface expressed GPNMB. Serial dilutions of anti-GPNMB antibodies of the present disclosure were added to 100,000 FS293-huGPNMB+ or B16F10 cells and allowed to achieve binding equilibrium at 4° C. After addition of fluorescently labeled secondary antibody and brief washing steps, MFI values as a function of titrated antibody concentration were recorded via FACS analysis. Equilibrium binding curves were fit using nonlinear regression analysis with Graphpad Prism 6 software.
A word on the EC50: it is the concentration that produces a half-maximal response. Turning to B4, the EC50 amounted to 0.293 nM.
B5 registered an EC50 of 0.178 nM.
B6 registered a concentration giving a half-maximal response (EC50) of 0.317 nM.
Same read-out and setting: the result for B7 reads 0.273 nM.
Regarding B8, the response was half-maximal at 0.33 nM (EC50).
In turn, B9 gave a 50% effective concentration (EC50) of 0.443 nM.
Still for that read-out and setting: the result for B10 reads 0.37 nM.
For the molecule B11, a half-maximal effect (EC50) was put at 0.262 nM.
For B12, the EC50 was found to be 0.416 nM.
